B1: Metastasis-associated protein MTA3, residues 265 to 317; numbered along this chain, Q9BTC8 (parent)
chain: RDEMEEWSASEASLFEEALEKYGKDFNDIRQDFLPWKSLTSIIEYYYMWKTTD

Variants of: B1
Experiment: abundance fitness (aPCA) (normalised: wild type 0, dead -1); higher = more abundant; growth selection in yeast, the domain comes from the species named
Conditions: Homo sapiens

Abundance fitness of substitutions, site by site:
S10: E -0.012, H -0.139, M -0.152, I -0.462, R -0.156, Y -0.158, Q -0.252, K 0.219, T -0.091, W 0.031, G -0.275, L -0.038, N -0.005, F -0.216, P -0.743
K24: R -0.151, W -0.935, S -0.108, E -0.133, V -0.217, F -0.992, I -0.536, C 0.163, G -0.208, D -0.165, Q -0.062, Y -0.331, L -0.006, N 0.333, P 0.307, A 0.104, H -0.362
K37: D -0.707, I -0.586, E -0.806, C -0.763, G -0.812, H -0.941, F -0.785, L -0.802
K21: Q -0.685, V -0.444, R -0.381, H -0.674, D -0.579, L -0.483, T -0.443, F -0.504, W -0.801, M -0.763, E -0.867, Y -0.571, I -0.418, N -0.984, G -0.842, P -0.804, S -0.745, C -0.683
W36: S -0.645, R -0.58, A -0.788, H -0.239, Q -0.422, E -0.884, M -0.677, Y -0.615, K -0.217, L -0.749, N -0.177, T -0.696, V -0.657, I -0.874, G -0.484, C -0.733
E11: F -0.87, R -0.92, V -0.7, Y -0.788, A -0.623, W -0.78, S -0.883, M 0.052, K -0.562, P -1.04, D 0.386, G -0.68, Q -0.811, T -0.567, N -0.91, C -0.818, L -0.713, I -1.1, H -0.175
E20: W -0.613, L -0.126, C -0.682, A 0.007, N -0.303, H -0.499, M -0.561, T -0.262, P -0.864, F -0.54, I -0.267, S -0.366, G -0.321, Y -0.506, V -0.213, D -0.283
F33: L -0.169
S13: I -0.527, E 0.158, V 0.066, F -0.436, N -0.261, W -0.689, C -0.134, L -0.045, K 0.502, G -0.015, Y -0.631, T -0.212, M 0.128, H -0.242, D -0.326
L19: M -0.255, W 0.043, Y 0.49, H -0.525, I 0.027, D -0.92, Q -0.34, T -0.581, V 0.113, G 0.002, C -1.03, K -0.838, A -0.67, E -0.809, R -0.607, S -0.722, N -0.785, F 0.459
A18: G 0.438, W -0.817, E -0.439, K -0.554, D -1.2, P -0.912, N -0.863, C -0.32, Y -0.703, R -0.913, S -0.988, M -0.643, L -0.627, H -0.873, F -0.902, Q -0.542, T -1, V -0.443
D28: Y 0.322, C 0.882, R 0.549, I 0.324, M 0.331, T 0.59, P -0.522, E 0.305, W 0.035, Q 1.19, A 0.861, S 0.644, L 0.978, N -0.112, F -0.015, K 0.9, G 0.079
A12: H -0.041, S -0.436, M 0.068, Y -0.768, W -0.816, F -0.941, R 0.22, N -0.15, P -0.805, K 0.358, D -0.875, I -0.117, C -0.273, Q 0.215, T -0.238, L -0.473, V 0.076, G -0.618, E -0.471
D32: S 1.09
E16: V -0.589, L -0.557, S -0.324, C -0.725, K -0.359, Y -0.185, P -0.621, I -0.693, T -0.686, G -0.907, A -0.119, W -0.504, H -0.202, Q 0.023, M -0.608, R -0.427, D -0.572, F -0.422, N -0.632
F15: G -0.788, D -0.578, N -0.969, K -0.86, I -0.836, L -0.697, H 0.397, E -0.695, S -0.543, W -1.02, R -0.485, T -0.851, Q -0.217, V -0.316, M -0.528, P -0.918, A -0.861, Y -1.15
N27: A -0.015, I 0.743, T -0.148, L -0.602, S 0.037, Q -0.075, M -0.464, V -0.246, D 0.074, E 0.431, W -0.635, Y -0.305
F26: S -0.959
E17: S -0.428, V -0.584, K -0.197, R -0.304, I -0.591, Y -0.39, N -0.668, Q -0.557, P -0.756, M -0.333, L -0.175, F -0.515, A -0.598, C -0.589, D -0.477, H -0.737, G -0.772
G23: Q -0.759, M -0.735, H -0.784, E -0.815, R -0.844, V -0.888, L -0.745, K -1.05, N -0.638, C -0.368, I -1.01, A -0.536, W -0.868, Y -0.353, P -0.81, T -0.92, S -0.792, D -0.558
Y22: T -0.599, C 0.26, H -0.079, P -0.707, E -0.856, Q -0.921, W -0.84, I 0.078, L -0.536, G -0.625, V 0.068, A -0.687, N -0.712, K -0.72, M -0.792, S -0.53, R -0.2, D -1.07
D25: G -0.47, L -0.741, A 0.556, Q 0.088, F -0.594, E -0.087, T -0.838, K 0.375, C -0.026, V -0.818, N 0.356, I -0.162, Y -0.392, S 0.366, H -0.125, W -0.776, M -0.25
L14: M -0.688, V -0.686, N -0.639, A -0.396, D -0.723, Y -0.353, W -0.956, I -0.444, G -0.866, E -1, H -0.945, P -0.872, K -0.168, Q -0.68, F -0.842, R -0.602
